Data reported in PMC11190223, “Identification of sulfakinin receptor regulating feeding behavior and hemolymph trehalose homeostasis in the silkworm, Bombyx mori” (Scientific Reports, 2024).
Where no end group is shown, it is not given here. [ ]: non-standard residue; d: D form. sY = N[C@@H](Cc1ccc(OS(=O)(=O)O)cc1)C(=O)O

Columns and labels:
[1] = biological target: T1, Flag-BNGR-A9 (Bombyx mori neuropeptide G protein-coupled receptor A9) expressed in HEK293 cells (Bombyx mori) (UniProt B3XXM2)
T1 sequence: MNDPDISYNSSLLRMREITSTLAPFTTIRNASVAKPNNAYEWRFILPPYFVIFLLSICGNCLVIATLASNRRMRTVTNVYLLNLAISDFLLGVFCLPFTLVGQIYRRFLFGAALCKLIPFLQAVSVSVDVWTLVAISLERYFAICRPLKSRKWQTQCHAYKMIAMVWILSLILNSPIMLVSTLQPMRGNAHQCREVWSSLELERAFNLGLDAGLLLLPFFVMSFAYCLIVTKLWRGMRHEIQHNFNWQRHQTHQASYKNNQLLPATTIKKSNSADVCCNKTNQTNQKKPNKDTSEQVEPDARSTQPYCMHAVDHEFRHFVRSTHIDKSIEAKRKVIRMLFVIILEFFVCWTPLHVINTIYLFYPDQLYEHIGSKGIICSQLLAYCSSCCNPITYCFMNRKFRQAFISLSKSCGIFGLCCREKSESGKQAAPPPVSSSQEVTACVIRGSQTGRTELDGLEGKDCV

[2] = biological target: T2, BNGR-A9 expressed in BmN cells (pIZT-BNGR-A9) (Bombyx mori) (UniProt B3XXM2)
T2 sequence: T1 sequence

[3] = biological target: T1, Flag-BNGR-A9 (Bombyx mori neuropeptide G protein-coupled receptor A9) expressed in HEK293 cells (Bombyx mori); remark: listed apart in the source
[4] = biological target: T2, BNGR-A9 expressed in BmN cells (pIZT-BNGR-A9) (Bombyx mori); remark: listed apart in the source

CRE-driven luciferase reporter, dose-response, HEK293 cells stably expressing BNGR-A9 [1]: 73.3 nM
CRE-driven luciferase reporter, dose-response, BmN cells stably expressing BNGR-A9 [2]: 60 nM
Fura-2 AM Ca2+ mobilization, dose-response 1 nM to 1 uM, HEK293 cells stably expressing BNGR-A9 [3]: 29 nM
Fura-2 AM Ca2+ mobilization, dose-response, BmN cells expressing BNGR-A9 [4]: 51.4 nM
B1: Bombyx mori sulfated-sulfakinin (peptide)
peptide: GDDTFDD[sY]GHLRF-NH2
modifications: N-terminus assumed
SMILES: CC(C)C[C@H](NC(=O)[C@H](Cc1c[nH]cn1)NC(=O)CNC(=O)[C@H](Cc1ccc(OS(=O)(=O)O)cc1)NC(=O)[C@H](CC(=O)O)NC(=O)[C@H](CC(=O)O)NC(=O)[C@H](Cc1ccccc1)NC(=O)[C@@H](NC(=O)[C@H](CC(=O)O)NC(=O)[C@H](CC(=O)O)NC(=O)CN)[C@@H](C)O)C(=O)N[C@@H](CCCNC(=N)N)C(=O)N[C@@H](Cc1ccccc1)C(N)=O
